Measurements as given in the Human Domainome abundance scans (Beltran et al. 2025).

B1: Transitional endoplasmic reticulum ATPase, residues 26 to 106; numbered along this chain, P55072 (parent)
chain: LIVDEAINEDNSVVSLSQPKMDELQLFRGDTVLLKGKKRREAVCIVLSDDTCSDEKIRMNRVVRNNLRVRLGDVISIQPCP

Variants of: B1
Experiment: abundance fitness (aPCA) (normalised: wild type 0, dead -1); higher = more abundant; growth selection in yeast, the domain comes from the species named
Details: Homo sapiens

Abundance fitness of substitutions, site by site:
V43: I -0.038; Q 0.147; G -0.289; M 0.098; R 0.07; S -0.052; Y 0.072; N -0.176; K -0.006; A -0.026; D -0.093; E 0.063; C -0.012; L -0.099; T -0.068; W 0.03; P -0.26
D50: E -0.023; K -0.105; H -0.021; L -0.146; I -0.059; F -0.214; A -0.023; G 0.031; M 0.025
R40: W -0.059; S -0.061; Y 0.073; Q -0.039; V 0.027; P -0.122; T 0.086
S48: I 0.031; W -0.357; E 0.04; K -0.004; G 0.001; D -0.137; Y -0.168; C 0.07; A 0.065; M -0.05; N 0.049; T -0.005; V 0.004; F -0.342; R -0.015; H -0.23; Q -0.106
L47: E 0.055; K -0.036; Y -0.087; H 0.126; G 0.024; Q -0.015; A 0.082; N 0.028; I -0.042; V -0.018; W -0.07; T -0.116; S -0.068; R -0.01; D -0.056; P -0.756; F 0.052; M 0.082; C -0.05
A42: F 0.037; Q -0.003; Y -0.045; K 0.041; L -0.049; M -0.018; I -0.258; H 0.027; R 0.028; V -0.065; N -0.147; E -0.117; C 0.116; P -0.825; S 0.085; G -0.179; D 0.028
C44: L -0.02; M 0.085; E -0.559; D -0.707; N -0.172; Y -0.091; R -0.104; F -0.074; T -0.066; V -0.026; K 0.057; A -0.017; P -0.969; Q 0.106; S -0.032; I -0.189; G -0.006
D49: L -0.904; A -0.139; Y -0.745; T -0.01; N -0.254; Q -0.307; W -0.923; S 0.064; M -0.78; E -0.094; P -0.743; K -0.529; C -0.468; F -0.936; H -0.251; R -0.627; V -0.455; G -0.204
E41: G -0.269; P -0.131; S -0.09; K 0.045; Y -0.14; N -0.383; C -0.399; Q -0.098; I -0.312; V -0.213; D -0.125; T -0.123; H -0.167; L -0.296
V46: T -0.147; E -0.649; C -0.048; R -0.951; N -0.749; M -0.376; K -0.528; P -0.439; W -0.74; Y -0.911; S -0.493; L -0.183; D -0.804; I -0.175; F -0.688
I45: Y -0.029; V 0.028; M -0.137; K -0.002; C 0.008; P -0.157; S -0.028; W -0.176; A -0.006; N 0.036; F -0.018; D -0.183; R 0.054; G -0.06; E 0.035; H -0.088; L -0.016
